{"source": "the DeepSol protein solubility set", "data": [{"assay": "soluble on expression in E. coli; label from the status in PepcDB or PDB records", "values": [{"sequence": "MGSDKIHHHHHHMQQVISDIMTFRGSHFELGVKTGKWLQQTPLLKNREKEWKKRVPRFDIDVNETYQIFQTYAPQIWEELMGLQSILKMPTRQIILNFGHYRFTDLKESGCTVFQGKDFMVRNYDYHPATYDGRYLLYQPTDSGLAQIGPVSRVTGRMDGMNESGLTMGYNFMHRKKPANGFVCYMIGRLILENCRNVTEAIQLLKEIPHRSSFSYILMDKSLNHAIVEVTPRSIDVRYDNICTNHFEILTHENRNYTKESKERLARTISQTNDNLDMTTAFKLFNNPQYEIYSKLFKSWSGTIHTSMYQPETLTAYFTLGENAPPEIIDFKSWLDGQDLNITHFTGNIDTDLTFANK", "soluble on expression in E. coli": "not soluble"}, {"sequence": "MGSDKIHHHHHHMMSQEQNDLITRVGPGTPCGKLMRAYWQPAALVDELEGERPIKPVRLLGEDLVLFKDETGRYGLIDRDCPHRGADLAFGRLENGGLRCAFHGWLFDVDGKCIDTPAEPAGSPLCKNIKQRAFPVVAKGGILWAYLGAGEPPAFPEIDCFIAPDTHVFAFKGLMECNWLQALEVGIDPAHASFLHRFFEDEDTSQAYGKQFRGASAGSDLPMTKVLREYDRPIINVEHTEYGLRLIALREIDDERTHVRVTNQLFPHGFVIPMSTEMTITQWHVPVDDTHCYWYAIFTSYAAPVDKVKMRDQRLELYELPNYKSRRNKTNDYGFDPHEQATATYTGMGLDINVHDQWAVESMGAIQDRTREHLGQSDKAIIQYRRLLRQEIEKAASGGKPLLALDEAAARAIQGPATMDGIGPSRGWETYWMEVDVKRRRGAPWAVPVPSEIAAKVPHLTAAE", "soluble on expression in E. coli": "not soluble"}, {"sequence": "MNTFQMRDKLKERLSHLDVDFKFNREEETLRIYRTDNNKGITIKLNAIVAKYEDKKEKIVDEIVYYVDEAIAQMADKTLESISSSQIMPVIRATSFDKKTKQGVPFIYDEHTAETAVYYAVDLGKSYRLIDESMLEDLKLTEQQIREMSLFNVRKLSNSYTTDEVKGNIFYFINSNDGYDASRILNTAFLNEIEAQCQGEMLVAVPHQDVLIIADIRNKTGYDVMAHLTMEFFTKGLVPITSLSFGYKQGHLEPIFILGKNNKQK", "soluble on expression in E. coli": "not soluble"}, {"sequence": "MLSSHLSQICFSCRDPLGNLPADLIRKCTDLMDLNFAEGQRLRTLNKNWKLALPSFRKGAYREERPWLLYRERGSGETRFFDPVRERVHRGNDPRLADARFLGSTLGWLVMSESLDLNPRKTHQTFLYNPFISELQQLPELTLDSPYPTGVLRYGVLTGNPSDNNTYACLITDYLHEIGNRRDTYTLLIYYVAKTSGRWEQNWSVASMLVVGIFDTWYIESISPSPDKISIEIWPKRYDFTFQTQEWNVSNFIPVDPIQWDPFHDQSLYHVKHRLQLPENPSTLAIIIGTSTDRTRVRNKIIGDQSDDDDPRASDHIIDGVWVEVRP", "soluble on expression in E. coli": "soluble"}, {"sequence": "MHHHHHHSSGVDLGTENLYFQSMADSEALPSLAGDPVAVEALLRAVFGVVVDEAIQKGTSVSQKVCEWKEPEELKQLLDLELRSQGESQKQILERCRAVIRYSVKTGHPRFFNQLFSGLDPHALAGRIITESLNTSQYTYEIAPVFVLMEEEVLRKLRALVGWSSGDGIFCPGGSISNMYAVNLARYQRYPDCKQRGLRTLPPLALFTSKECHYSIQKGAAFLGLGTDSVRVVKADERGKMVPEDLERQIGMAEAEGAVPFLVSATSGTTVLGAFDPLEAIADVCQRHGLWLHVDAAWGGSVLLSQTHRHLLDGIQRADSVAWNPHKLLAAGLQCSALLLQDTSNLLKRCHGSQASYLFQQDKFYDVALDTGDKVVQCGRRVDCLKLWLMWKAQGDQGLERRIDQAFVLARYLVEEMKKREGFELVMEPEFVNVCFWFVPPSLRGKQESPDYHERLSKVAPVLKERMVKEGSMMIGYQPHGTRGNFFRVVVANSALTCADMDFLLNELERLGQDL", "soluble on expression in E. coli": "soluble"}, {"sequence": "MEVIRSQKRTVSNDVVSTPTLPLYLTAPHMEVRLEEFELFAIDRLRVLKGVSDGLARARNPNEMDDLVETLWKEHMRLSNVSEMINKDIISHFVLRLVYCRSDELKKWFLSMETALFRHRFRLKKIEEQRAIVGEFGLPYKAVIGAELESLKERLGLVARSHGQISSDVENIYYKVPFEEVPDLVASRRVLLQKGFAFVAGTQLVSLVVTQFRSHLSKALILTNRKWTTTIREREKDRLTPIVEALSTSYLGPDYSQSNEYADISLKDIDQVSKSSFPLCMRHLFEKLREDHHLKHGGRMQLGLFLKLDDALAFWREEFTKKVGSERFDKEYAYAIRHNYGKEGKRTDYTPYACSKIITSAPGAGDHHGCPYRHFSEDNLKAALSRMGLSSRGMEDVMDKVRNRHYQLACTLTFEAVYGTSCDTGINHPNQYFEESQKILKSKTPAAPV", "soluble on expression in E. coli": "soluble"}, {"sequence": "PVFENNNQRYYESLPFKQLKELKIACSQYGPTAPFTIAMIENLGTQALPPNDWKQTARACLSGGDYLLWKSEFFEQCARIADVNRQQGIQTSYEMLIGEGPYQATDTQLNFLPGAYAQISNAARQAWKRLPSLEHHHHHH", "soluble on expression in E. coli": "soluble"}, {"sequence": "MSVVSLVGQMYKREKPIPEWKTLMLRELEELFSKHRVVLFADLTGTPTFVVQRVRKKLWKKYPMMVAKKRIILRAMKAAGLELDDNLLDDLVRGQMLLVFADGNPFKIVKEVEKEKVAMPVKPGDKAETEIRIPEGMTNLTPGPILSVFGKLRIQYQVRGGKIYIAKETVVAKPGDVISEDLAGLLMALGIRPIEKGVRVKFAIDGGVLITEDLLRPDIEAFRGDVIDAAKEALGLATEIVYMPVPEAVESAIVKAALAASALAAETGFIAPGTVEDVVRKAIAEEAAVVALLGDKARELGIEEAAPAAAPAAEEKAEEEKKEEEEEKKEDQELSGLDSIFGGF", "soluble on expression in E. coli": "soluble"}, {"sequence": "MGSDKIHHHHHHMWIEQRLWTPEGGWTVTETSPGKASLVLYFAAPGALTPESILADLRVAYGNAPILGCTTGGEILGPEVLDDSIVVSALGFDKASVRMASRDLSDVSQSRETGAALARELAGEDLRAIFILSDGTKVNGDSLVAGCLSAVTSDVVVTGGLAGDGARFQTTAVGCSDAMRPGRVAAVGFYGDSLAIGHGSFGGWDEFGPPRTITRSAANVLYELDGEPALDLYKRYLGEEAQGLPGSALLFPLSIRPSGDDAGAEVVRTIVGIDEEAKSMIFAGDVPTGHLARLMRGNFDNLVDGAGRAAEAAAAIKGPSLGLLVSCIGRKLLMGQRIAEEVEIVSDVLGKEASLMGFYSYGEISPHGFTGKCELHNQTMTITTISER", "soluble on expression in E. coli": "not soluble"}, {"sequence": "MKLYNLKDHNEQVSFAQAVTQGLGKNQGLFFPHDLPEFSLTEIDEMLKLDFVTRSAKILSAFIGDEIPQEILEERVRAAFAFPAPVANVESDVGCLELFHGPTLAFKDFGGRFMAQMLTHIAGDKPVTILTATSGDTGAAVAHAFYGLPNVKVVILYPRGKISPLQEKLFCTLGGNIETVAIDGDFDACQALVKQAFDDEELKVALGLNSANSINISRLLAQICYYFEAVAQLPQETRNQLVVSVPSGNFGDLTAGLLAKSLGLPVKRFIAATNVNDTVPRFLHDGQWSPKATQATLSNAMDVSQPNNWPRVEELFRRKIWQLKELGYAAVDDETTQQTMRELKELGYTSEPHAAVAYRALRDQLNPGEYGLFLGTAHPAKFKESVEAILGETLDLPKELAERADLPLLSHNLPADFAALRKLMMNHQ", "soluble on expression in E. coli": "soluble"}, {"sequence": "MKYLLPTAAAGLLLLAAQPAMAMASGGNSDSKTLNSLDKIKQNGVVRIGVFGDKPPFGYVDEKGNNQGYDIALAKRIAKELFGDENKVQFVLVEAANRVEFLKSNKVDIILANFTQTPQRAEQVDFCSPYMKVALGVAVPKDSNITSVEDLKDKTLLLNKGTTADAYFTQNYPNIKTLKYDQNTETFAALMDKRGDALSHDNTLLFAWVKDHPDFKMGIKELGNKDVIAPAVKKGDKELKEFIDNLIIKLGQEQFFHKAYDETLKAHFGDDVKADDVVIEGGKILEHHHHHH", "soluble on expression in E. coli": "soluble"}, {"sequence": "MGLWFEEGAEERQVLGPFREFLKAEVAPGAAERDRTGAFPWDLVRKLAEFGVFGALVPEAYGGAGLSTRLFARMVEAIAYYDGALALTVASHNSLATGHILLAGSEAQKEAFLPKLASGEALGAWGLTEPGSGSDAAALKTKAEKVEGGWRLNGTKQFITQGSVAGVYVVMARTDPPPSPERKHQGISAFAFFRPERGLKVGRKEEKLGLTASDTAQLILEDLFVPEEALLGERGKGFYDVLRVLDGGRIGIAAMAVGLGQAALDYALAYAKGREAFGRPIAEFEGVSFKLAEAATELEAARLLYLKAAELKDAGRPFTLEAAQAKLFASEAAVKACDEAIQILGGYGYVKDYPVERYWRDARLTRIGEGTSEILKLVIARRLLEAV", "soluble on expression in E. coli": "soluble"}, {"sequence": "MGSDKIHHHHHHMFSSPLELFKALTQIPHSSGDTTLMQKFLIQSAQSFGALVSVDSAGNILCQKGDSPRFCLQAHYDMVCVGKAPEIELFEEGGWLRAKDSSLGADNGAALACFLILLKQESSIEILFTNDEEIGMLGAKALELTPSAPLILNVDSESLQEVVISCAGGYDLELEIPATFKETPAEGYLYELSTQNFLGGHSGIDIIKNHPNALVEMAHLLASLPVEILSFEGGEKSNSIPVHAKASLFSSRPLEHLPSWIRATARPLSSPLKALDQTPLLDLLRALHSGIFAYDEESSGVLDSLNISLLKAHEKGWTLTLMGRANDKERLWRNLERARLIARAFGIKEDRLKDFYPPWEKAKSSSYLEKIKEVYERELGVCHVRSIHAGLECAVLQEKLPKAEFISIGPTILHPHSTREALDIKSFERFWEILQIITKVL", "soluble on expression in E. coli": "not soluble"}, {"sequence": "SNPLCSRCNRVVYPTEKVNCLDKYWHKGCFSCEVCKMTLNMKNYKGFEKRPYCNAHYPKTSFTSVADTPENLRLKQQSKMQSQVLYKEEFEKNKGKGFSVVADTPELQRIKKTQDQISNIKYHEDFEKSRSGGDTPLPLTPQLNTPPAYPSSAASQNYHYEPEPVRPAAAAPPPSSGKRYRAVYDYTAADEDEVSFMDGDMIVDVQQIDEGWMYGRVERTGQQGMLPANYVEAM", "soluble on expression in E. coli": "soluble"}, {"sequence": "MLNVGATAPDFTLRDQNQQLVTLRGYRGAKNVLLVFFPLAFTGICQGELDQLRDHLPEFENDDSAALAISVGPPPTHKIWATQSGFTFPLLSDFWPHGAVSQAYGVFNEQAGIANRGTFVVDRSGIIRFAEMKQPGEVRDQRLWTDALAALTA", "soluble on expression in E. coli": "soluble"}, {"sequence": "MGSDKIHHHHHHMVIENAMNIQFVLKDFSTFGGVERIQYNLAKKFKNDGHNVSFYILNGDSVALDTSHEFIIHKGSKSGFITFLFEIIKLRNNIYKNRIDVVIAAKEQANIAAFFATIFTKVSTIYTRHSALNVSEQRINERSVLLIYSLLTLSKGKVVTVSHDLKYSLLKSLPWGKDKIHVCPNPVLTESIYLKSLQPITDFKLPLSYICSVGRLTRTKGFDVLIQAYKQCITKELNFPDLVIAGSGEEYASLVKLTQELNVADKVHFLGHIDNPYVLMKNSSGFVLSSRNEGLPTVLIEAIALGTNVVSTDCLTGPREILDGGRIGKLVPVEDVRSLAEAMLTLPLHKLSESEIREMDRYSLEQSAIAYFKLFTKKSH", "soluble on expression in E. coli": "not soluble"}, {"sequence": "MGSSHHHHHHSSGLVPRGSHMILTLTLNPSVDISYPLTALKLDDVNRVQEVSKTAGGKGLNVTRVLAQVGEPVLASGFIGGELGQFIAKKLDHADIKHAFYNIKGETRNCIAILHEGQQTEILEQGPEIDNQEAAGFIKHFEQLLEKVEAVAISGSLPKGLNQDYYAQIIERCQNKGVPVILDCSGATLQTVLENPYKPTVIKPNISELYQLLNQPLDESLESLKQAVSQPLFEGIEWIIVSLGAQGAFAKHNHTFYRVNIPTISVLNPVGSGDSTVAGITSAILNHENDHDLLKKANTLGMLNAQEAQTGYVNLNNYDDLFNQIEVLEV", "soluble on expression in E. coli": "soluble"}, {"sequence": "QYYDYDFPLSIYGQSSPNCAPECNCPESYPSAMYCDELKLKSVPMVPPGIKYLYLRNNQIDHIDEKAFENVTDLQWLILDHNLLENSKIKGRVFSKLKQLKKLHINHNNLTESVGPLPKSLEDLQLTHNKITKLGSFEGLVNLTFIHLQHNRLKEDAVSAAFKGLKSLEYLDLSFNQIARLPSGLPVSLLTLYLDNNKISNIPDEYFKRFNALQYLRLSHNELADSGIPGNSFNVSSLVELDLSYNKLKNIPTVNENLENYYLEVNQLEKFDIKSFCKILGPLSYSKIKHLRLDGNRISETSLPPDMYECLRVANEVTLN", "soluble on expression in E. coli": "not soluble"}]}]}
